A word on the Kd: it is a measure of binding affinity in units of concentration. A higher Kd goes with weaker binding.

Our source for the binding result and Kd values is patent US20160185853A1 (UNIVERSITY OF SOUTHERN CALIFORNIA, published 2016).

The target of assay [1] is T1, GRP78-His (human GRP78 amino acids 1-650, without KDEL motif, hexahistidine tag on C-terminus) (human, UniProt P11021 19-650).
T1 construct: also called GRP78-His polypeptide
The experiment in a line: competition ELISA on GRP78-His; dilution series of unlabelled antibody against a fixed concentration of biotinylated murine MAb159 [panel A].

The target of a further assay is T2, human GRP78 (human, UniProt P11021 19-654).
T2 construct: also called BiP/HSPA5; antigen
Put plainly: Scatchard assay.

The target in a further assay is T3, HSP70 (UniProt P0DMV8 2-641).
T3 construct: also called GRP78's closest paralogue
Put plainly: Western blot of MCF7 whole cell lysates. (In general: In western blotting, separated proteins are transferred to a membrane and probed.)

Another assay concerns the target T4, mouse GRP78 (mouse, UniProt P20029 20-655).
T4 construct: Denatured protein on an immunoblot; also called GRP78 protein band in mouse embryo fibroblast (MEF) lysates
Put plainly: immunoblot of MEF lysates; band absent after deletion of Grp78.

Assay [2] deals with T5, Flag tagged GRP78 (without KDEL) (human, UniProt P11021 19-650, surface biotinylated with Sulfo-NHS-LC-Biotin).
T5 construct: also called surface GRP78 (overexpressed); not shown: Flag tag
The experiment in a line: surface biotinylation, avidin purification, anti-Flag immunoprecipitation, Western blot (293T cells).

B1: humanized MAb159 (antibody, V domains shown)
VH: QAQLVQSGAEVKKPGASVKVSCKASGYTFTSYWMHWVRQAPGQGLEWIGEINPGNGRTNYNEKFKRRVTITVDKSASTAYMELSSLRSEDTAVYYCATLYYYDGTYDYWGQGTTVTVSS
VL: DIVMTQSPSFLSASVGDRVTITCKASQNVGTDVAWYQQKPGKAPKALIYWASNRFTGVPDRFTGSGSGTDFTLTISSLQSEDVADYFCQQYSSSPWTFGGGTKVEIK
notes: It carries a human Fc (detected with a human Fc specific antibody)
Take B1: the binding result in assay [1] is “binds”.

B2: MAb159 (murine monoclonal antibody) (antibody, V domains shown)
VH: QAQLQQPGAELVKPGASVRLSCKASGYTFTSYWMHWVKQRPGQGLEWIGEINPGNGRTNYNEKFKRKATLTVDKSSSTAYMQLNSLTSEDSAVYYCATLYYYDGTYDYWGQGTTLTVSS
VL: DIVMTQSHKFMSTSVGDRVSVTCKASQNVGTDVAWYQQKPGQSPKALIYWASNRFTGVPDRFTGSGSGTDFTLTINNVQSEDLVDYFCQQYSSSPWTFGGGTKLEIK
notes: Whole murine monoclonal antibody from a hybridoma, purified on protein G; also called murine MAb159; parental murine antibody
In the assay with human GRP78, B2 displayed a Kd of 1.7 nM. Also, the figures for the binding result in the assay with HSP70 and in the assay with mouse GRP78 were “no binding (tested: 1 µg/ml primary antibody)” and “binds”, respectively.

B3: ERK1 (enzyme, UniProt P27361 2-379, looked up)
chain: AAAAAQGGGGGEPRRTEGVGPGVPGEVEMVKGQPFDVGPRYTQLQYIGEGAYGMVSSAYDHVRKTRVAIKKISPFEHQTYCQRTLREIQILLRFRHENVIGIRDILRASTLEAMRDVYIVQDLMETDLYKLLKSQQLSNDHICYFLYQILRGLKYIHSANVLHRDLKPSNLLINTTCDLKICDFGLARIADPEHDHTGFLTEYVATRWYRAPEIMLNSKGYTKSIDIWSVGCILAEMLSNRPIFPGKHYLDQLNHILGILGSPSQEDLNCIINMKARNYLQSLPSKTKVAWAKLFPKSDSKALDLLDRMLTFNPNKRITVEEALAHPYLEQYYDPTDEPVAEEPFTFAMELDDLPKERLKELIFQETARFQPGVLEAP
notes: Printed only as ERK1/2; also called ERK1/2; Erk1/2
Regarding B3, the binding result in assay [2] is listed as “no binding”.
